Biological target: T1, human TIGIT-hFc (human, UniProt Q495A1 22-141)
T1 sequence (looked up): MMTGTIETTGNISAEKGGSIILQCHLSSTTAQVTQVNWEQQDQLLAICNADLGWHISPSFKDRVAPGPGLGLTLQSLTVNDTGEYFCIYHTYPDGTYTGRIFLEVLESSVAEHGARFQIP
Assay: indirect ELISA screen of hybridomas with human TIGIT-hFc as antigen

- binding result: binds
B1: 26B12 (antibody, V domains shown)
VH: EVQLQESGPGLVKPSQSLSLTCTVTGHSFTSDYAWNWIRQFPGNRLEWMGYISYSDSTNYNPSLKSRISITRDTSKNQFFLQMNSVTTEDTATYYCARLDYGNYGGAMDYWGQGTSVTVSS
VL: DIVLTQSHEFMSTSLRDRVSITCKSSQHVSTAVAWYQQKPGQSPKLLIYSASYRYTGVPDRFTGSGSGTDFTFTISSVKAEDLAVYYCQQHYITPWTFGGGTKLEIK
notes: Murine monoclonal antibody from a hybridoma; also called anti-TIGIT antibody 26B12; monoclonal antibody secreted by hybridoma cell line LT019

From EP4778535A1 (Akeso Biopharma Co., Ltd., dated 2026)
